{
  "source": "paper PMC3540084",
  "key": {"[1]": {"molecular_target": "recombinant human caspase-9 (human) (UniProt P55211)", "sequence (P55211 whole entry)": "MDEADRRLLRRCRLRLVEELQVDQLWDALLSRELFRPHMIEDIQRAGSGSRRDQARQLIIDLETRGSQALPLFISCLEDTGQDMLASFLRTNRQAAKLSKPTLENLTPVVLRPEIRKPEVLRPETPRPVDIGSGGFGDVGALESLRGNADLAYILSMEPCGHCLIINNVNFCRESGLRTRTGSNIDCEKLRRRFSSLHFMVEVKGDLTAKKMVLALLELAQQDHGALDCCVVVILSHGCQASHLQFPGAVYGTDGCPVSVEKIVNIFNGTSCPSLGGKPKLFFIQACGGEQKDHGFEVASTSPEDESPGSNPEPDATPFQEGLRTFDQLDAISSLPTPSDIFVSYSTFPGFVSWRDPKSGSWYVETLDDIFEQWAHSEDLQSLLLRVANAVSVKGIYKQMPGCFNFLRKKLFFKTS"}, "[2]": {"molecular_target": "T1, recombinant human caspase-7 (human) (UniProt P55210)", "T1 sequence": "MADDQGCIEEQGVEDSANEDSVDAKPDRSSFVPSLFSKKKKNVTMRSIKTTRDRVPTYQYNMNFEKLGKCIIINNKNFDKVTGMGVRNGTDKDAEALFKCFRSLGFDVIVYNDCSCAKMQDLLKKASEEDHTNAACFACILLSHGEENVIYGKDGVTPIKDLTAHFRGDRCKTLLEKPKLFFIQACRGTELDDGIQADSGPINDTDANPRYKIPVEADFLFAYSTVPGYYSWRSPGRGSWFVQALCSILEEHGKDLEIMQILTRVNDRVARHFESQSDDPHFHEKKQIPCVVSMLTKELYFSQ"}, "[3]": {"molecular_target": "T2, recombinant human caspase-3 (human) (UniProt P42574)", "T2 sequence": "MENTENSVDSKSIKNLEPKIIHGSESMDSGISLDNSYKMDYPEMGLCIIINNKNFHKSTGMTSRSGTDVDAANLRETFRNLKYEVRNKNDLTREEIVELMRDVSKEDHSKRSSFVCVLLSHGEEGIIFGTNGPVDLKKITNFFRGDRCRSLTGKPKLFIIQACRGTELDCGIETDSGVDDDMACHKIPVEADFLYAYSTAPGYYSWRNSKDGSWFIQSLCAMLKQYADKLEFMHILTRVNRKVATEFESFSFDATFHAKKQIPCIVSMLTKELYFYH"}, "[4]": {"molecular_target": "T3, recombinant human caspase-6 (human) (UniProt P55212)", "T3 sequence": "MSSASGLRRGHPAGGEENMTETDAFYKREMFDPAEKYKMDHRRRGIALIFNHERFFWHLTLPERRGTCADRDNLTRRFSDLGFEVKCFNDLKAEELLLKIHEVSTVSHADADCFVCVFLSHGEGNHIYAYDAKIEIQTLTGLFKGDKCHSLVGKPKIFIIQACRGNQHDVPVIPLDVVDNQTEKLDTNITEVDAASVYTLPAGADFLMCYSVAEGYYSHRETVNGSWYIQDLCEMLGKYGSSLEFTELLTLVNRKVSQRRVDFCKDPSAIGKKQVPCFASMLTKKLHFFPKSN"}},
  "data": [
    {"substance": "recombinant human IL-1Ra (from UniProt P18510 26-177) (natural protein)", "values": [
      {"measurement": "i 0,5 of inhibition of rh-caspase-9 activity (release of AMC from Ac-LEHD-AMC, substrate at Km concentration, 22°C)", "setting": "[1]", "value": 0.31, "unit": "µM"},
      {"measurement": "percent inhibition of rh-caspase-9 activity by 100 nM IL-1Ra", "setting": "[1]", "value": 41, "unit": "%"},
      {"measurement": "i 0,5 of inhibition of rh-caspase-7 activity (release of AMC from Ac-DEVD-AMC, substrate at Km concentration, 22°C)", "setting": "[2]", "value": 1.3, "unit": "µM"},
      {"measurement": "i 0,5 of inhibition of rh-caspase-3 activity (release of AMC from Ac-DEVD-AMC, substrate at Km concentration, 22°C)", "setting": "[3]", "value": 2.5, "unit": "µM"},
      {"measurement": "i 0,5 of inhibition of rh-caspase-6 activity (release of AMC from Ac-DEVD-AMC, substrate at Km concentration, 22°C)", "setting": "[4]", "value": 2.2, "unit": "µM"}
    ]}
  ]
}
